# In patent US20050075291:
# Biological target: reconstituted tissue factor (Innovin, Dade) (UniProt P13726)
# Chain of UniProt P13726 (P13726 33-295): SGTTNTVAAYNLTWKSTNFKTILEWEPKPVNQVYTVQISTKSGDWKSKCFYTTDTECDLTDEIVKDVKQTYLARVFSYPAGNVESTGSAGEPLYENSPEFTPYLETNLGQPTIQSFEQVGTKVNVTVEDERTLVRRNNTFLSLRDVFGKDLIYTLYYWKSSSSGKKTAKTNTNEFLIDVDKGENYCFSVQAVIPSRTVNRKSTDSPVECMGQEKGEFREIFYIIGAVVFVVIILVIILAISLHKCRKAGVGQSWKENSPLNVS
substance,measurement,value
Human factor VIIa-T9Q11E33,"competition assay (clotting time as a function of added FFR-VIIa, 0 to 3.5 nM)",Human factor VIIa-T9Q11E33 exhibited a severe loss of competitive binding affinity
factor VII with leucine for phenylalanine at position 5 (which contained the Q11E33 mutations),"competition with active-site modified VIIa (0-3.2 nM), clotting time",had much lower activity than the Q11E33 mutant
